# Article PMC12888920, “MMP-9 regulates disulphide isomerase activity of TGM2 to enhance fusion glycoprotein-mediated syncytium formation of respiratory syncytial virus” (Protein & Cell, 2025)
# Molecular target: T1, purified human MMP-9 (human, UniProt P14780 20-707)
# T1 construct: human matrix metalloproteinase 9; May be the same protein as MMP-9-6x His; Methods are in the supplementary file; source: purified
# Assay: BLI; ForteBio Octet; who was immobilised and buffer not told in the text shown; three biological replicates
# Details: both partners purified
# T1 sequence (P14780 20-707): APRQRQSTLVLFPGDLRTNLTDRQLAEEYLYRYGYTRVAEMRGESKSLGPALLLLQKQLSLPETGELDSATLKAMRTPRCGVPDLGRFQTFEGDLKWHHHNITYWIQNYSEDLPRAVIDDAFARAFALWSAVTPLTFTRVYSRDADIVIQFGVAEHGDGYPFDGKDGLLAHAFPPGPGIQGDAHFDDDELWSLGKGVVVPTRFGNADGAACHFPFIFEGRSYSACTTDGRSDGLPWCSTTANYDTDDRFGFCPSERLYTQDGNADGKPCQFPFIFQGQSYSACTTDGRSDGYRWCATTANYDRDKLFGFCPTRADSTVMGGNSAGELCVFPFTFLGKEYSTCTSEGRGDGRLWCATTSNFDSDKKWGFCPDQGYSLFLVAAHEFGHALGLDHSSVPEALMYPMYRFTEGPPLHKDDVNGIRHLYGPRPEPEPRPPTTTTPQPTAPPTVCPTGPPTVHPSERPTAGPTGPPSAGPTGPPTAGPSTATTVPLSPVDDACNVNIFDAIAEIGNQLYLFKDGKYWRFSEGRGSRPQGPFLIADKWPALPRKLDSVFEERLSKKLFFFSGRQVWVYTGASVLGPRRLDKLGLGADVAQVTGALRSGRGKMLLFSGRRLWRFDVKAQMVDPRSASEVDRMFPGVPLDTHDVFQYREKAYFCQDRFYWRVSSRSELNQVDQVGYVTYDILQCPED
binder,measurement,value
"purified human TGM2 (transglutaminase 2) (enzyme, UniProt P21980 1-687, looked up, human transglutaminase 2; the purified protein's band is called full-length TGM2 (100 kDa) in the cleavage assay; The printed 100 kDa for full-length TGM2 is larger than the native protein; also called recombinant TGM2; source: purified) MAEELVLERCDLELETNGRDHHTADLCREKLVVRRGQPFWLTLHFEGRNYEASVDSLTFSVVTGPAPSQEAGTKARFPLRDAVEEGDWTATVVDQQDCTLSLQLTTPANAPIGLYRLSLEASTGYQGSSFVLGHFILLFNAWCPADAVYLDSEEERQEYVLTQQGFIYQGSAKFIKNIPWNFGQFEDGILDICLILLDVNPKFLKNAGRDCSRRSSPVYVGRVVSGMVNCNDDQGVLLGRWDNNYGDGVSPMSWIGSVDILRRWKNHGCQRVKYGQCWVFAAVACTVLRCLGIPTRVVTNYNSAHDQNSNLLIEYFRNEFGEIQGDKSEMIWNFHCWVESWMTRPDLQPGYEGWQALDPTPQEKSEGTYCCGPVPVRAIKEGDLSTKYDAPFVFAEVNADVVDWIQQDDGSVHKSINRSLIVGLKISTKSVGRDEREDITHTYKYPEGSSEEREAFTRANHLNKLAEKEETGMAMRIRVGQSMNMGSDFDVFAHITNNTAEEYVCRLLLCARTVSYNGILGPECGTKYLLNLNLEPFSEKSVPLCILYEKYRDCLTESNLIKVRALLVEPVINSYLLAERDLYLENPEIKIRILGEPKQKRKLVAEVSLQNPLPVALEGCTFTVEGAGLTEEQKTVEIPDPVEAGEEVKVRMDLLPLHMGLHKLVVNFESDKLKAVKGFRNVIIGPA",Kd,1.98 µM
